Assay results reported in patent US20230051715A1 (MABWELL THERAPEUTICS, published 2023).
Positions count from the first letter of the chain named. Numbers in names are those of the source.

T1: human C1s mutant M12 (G381E & G382E) (human, UniProt P09871 16-688)
T1 construct: The entry is the mutant itself
T1 sequence: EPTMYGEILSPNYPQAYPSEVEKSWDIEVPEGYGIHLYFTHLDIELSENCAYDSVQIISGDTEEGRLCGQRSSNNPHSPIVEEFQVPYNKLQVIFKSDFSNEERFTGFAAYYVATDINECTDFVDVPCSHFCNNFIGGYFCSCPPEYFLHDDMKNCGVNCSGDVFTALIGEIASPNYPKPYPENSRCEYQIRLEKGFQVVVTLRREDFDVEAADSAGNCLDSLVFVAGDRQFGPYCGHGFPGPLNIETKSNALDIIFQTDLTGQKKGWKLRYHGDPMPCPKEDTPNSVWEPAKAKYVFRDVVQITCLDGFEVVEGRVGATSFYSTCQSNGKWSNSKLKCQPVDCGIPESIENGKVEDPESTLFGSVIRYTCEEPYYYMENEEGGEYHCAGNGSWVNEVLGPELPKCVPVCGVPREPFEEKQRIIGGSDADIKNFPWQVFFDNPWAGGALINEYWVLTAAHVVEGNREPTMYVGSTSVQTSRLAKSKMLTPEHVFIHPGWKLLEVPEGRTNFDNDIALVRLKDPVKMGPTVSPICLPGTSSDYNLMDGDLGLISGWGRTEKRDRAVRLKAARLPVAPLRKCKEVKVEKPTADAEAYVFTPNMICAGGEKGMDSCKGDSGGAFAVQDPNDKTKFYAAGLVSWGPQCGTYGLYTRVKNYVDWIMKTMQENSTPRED

T2: human C1s mutant M10 (D283I & P285A) (human, UniProt P09871 16-688)
T2 construct: The entry is the mutant itself
T2 sequence: T1 sequence with D283I, P285A, E381G, E382G

T3: human C1s mutant M20 (A320S) (human, UniProt P09871 16-688)
T3 construct: The entry is the mutant itself
T3 sequence: T1 sequence with A319S, E381G, E382G

B1: Anti-C1s antibody hz2-8 (H1L2 G80A) (antibody, V domains shown)
VH: QVQLVQSGAEVKKPGASVKVSCKASGFNIKEYYMHWVRQAPEQGLEWMGWIDPENADTIYAQKFQGRVTITADTSTNTAYMELSSLRSEDTAVYYCARSRLFFAYWGQGTLVTVSS
VL: DIQMTQSPKSLSASVGDRVTITCRASQDVRTALDWYQQKPGQSPKLLIYSASYRYSGVPSRFSGSGSGTDFTLTISSLQPEDFATYYCQQQYTTPYTFGQGTKLEIKR
notes: Humanized variant with G80A in HC CDR2 (already in the entry), human IgG1 / kappa
B2: Anti-C1s antibody hz2-8 (H1L2 G80A/T82A) (antibody, V domains shown)
VH: B1 VH with T58A
VL: B1 VL
notes: Humanized variant with G80A and T82A in HC CDR2 (already in the entry), human IgG1 / kappa
B3: Anti-C1s antibody hz2-7(H1L2) (antibody, V domains shown)
VH: EVQLLESGGGLVQPGGSLRLSCAASGFTFSNYFMNWVRQAPGKGLEWVSEIRLKFTNYATHYADSVKGRFTISRDDSKSTLYLQMNSLRAEDTAVYYCTRDYGSRNGYFDYWGQGTLVTVSS
VL: DIVMTQTPLSLPVTPGEPASISCRSSKSLLHSNGNTFLYWFLQKPGQSPQLLIYRMSNLASGVPDRFSGSGSGTDFTLKISRVEAEDVGVYYCMQHLEYPYTFGGGTKLEIKR
notes: Humanized, human IgG1 / kappa; also called hz2-7(1L2)

The binders below were run against T1, human C1s mutant M12 (G381E & G382E) (assay: ELISA, plate coated with human C1s mutant M12: G381E, G382E, OD450nm).
Protocol: (§1) ELISA was carried out by first coating 96-well plates with 200 ng/well of full-length or truncated C1s proteins overnight. The next morning, plates were blocked with SuperBlock T20 blocking buffer (Thermo Scientific 37536) for 1 h with gentle shaking. Then, various concentrations of anti-C1s antibodies diluted in SuperBlock T20 blocking buffer were added to the plates and incubated for 1 h with gentle shaking. Mouse IgG (Sigma-Aldrich 15381) and human IgG1 (BioXCell BP0297) were used as negative controls. The plates were washed before incubating with HRP conjugated secondary antibodies diluted in SuperBlock T20 blocking buffer (goat anti-mouse IgG (H+L) cross-adsorbed secondary antibody HRP (Invitrogen G-21040) or goat anti-human IgG antibody, HRP conjugate (Millipore AP309P)) for 1 h with gentle shaking. At last, the plates were washed and color developed with ELISA liquid HRP substrate (Sigma-Aldrich), followed by stopping the reaction with addition of 1M H₂SO₄ in the same volume as the ELISA liquid substrate. Bound antibody was measured by absorbance at OD₄₅₀ₙₘ.
(§2) Binding of anti-C1s antibodies to mutants M1-M20 of human C1s was measured by ELISA as described in Example 4, and results are shown in FIGS. 6B-6U. All anti-C1s humanized variants including hz2-7(H1L2), hz2-8(H1L2 G80A) and hz2-8(H1L2 G80A/T82A) maintained strong binding properties to the majority (16 out of 20) of C1s mutants including M1 (FIG. 6B), M2 (FIG. 6C), M3 (FIG. 6D). M4 (FIG. 6E), M7 (FIG. 6H), M8 (FIG. 6I), M10 (FIG. 6K), M11 (FIG. 6L), M12 (FIG. 6M), M13 (FIG. 6N), M15 (FIG. 6P), M16 (FIG. 6Q), M17 (FIG. 6R), M18 (FIG. 6S), M19 (FIG. 6T) and M20 (FIG. 6U).

Binder | EC50 [ng/mL]
B1 | 5
B2 | 5
B3 | 5

These binders were tested against T2, human C1s mutant M10 (D283I & P285A) (assay: ELISA, plate coated with human C1s mutant M10: D283I, P285A, OD450nm).
Protocol: as §1, §2

Binder | EC50 [ng/mL]
B1 | 5
B2 | 6
B3 | 6

What follows are binders tested against T3, human C1s mutant M20 (A320S) (assay: ELISA, plate coated with human C1s mutant M20: A320S, OD450nm).
Protocol: as §1, §2

Binder | EC50 [ng/mL]
B1 | 3
B2 | 5
B3 | 4
